From the DeepSol protein solubility set

Experiment: soluble on expression in E. coli; label from the status in PepcDB or PDB records

Soluble on expression in E. coli, not soluble:
MGSDKIHHHHHHMNLVMEKTFEQYEKLFSMEEQKREDVFRYTMMRPFEKMWTAIQVPLKAKEPNGYDVIMAAKMLGYLDVRDAESGQKALQILKESHVSETAESALRQCIFFAEREQLRVNAKEIKFGLYIADPNKLQLQKGYCGFGGIPGFIHVWINPNSYNLPRIPSIIAHEFHHNVRFSYIDFHHGSVSVGDYLVIEGLAESFARELFGTERLGPWVTRFDHEDLQYSIDVINEVLDVKGFSEVSRYMFGDPIANDQGFKPAGLSAFAGYAVGYHAVQSFMNQHHITISEATRLDAKTIISQCGLFLHEKSVTYSGAF
MGSDKIHHHHHHMNLYQTKLFTTLQKEYKNKYGVDISQFVKLTNSSINFDKFEEEQLTLKQKNVIKSIKKNNEKKIILSGGIASGKTYLACYLFLKSLIEIKKLYSSDTNNFIIGNSQRSVEVNVLGQFEKLCKLLKIPYIPRHTNNSYILIDSLRINLYGGDKASDFERFRGSNSALIFVNEATTLHKQTLEEVLKRLRCGQETIIFDTNPDHPEHYFKTDYIDNIATFKTYKFTTYDNVLLSKGFVETQEKLYKDIPSYKARVLLGEWIASTDSIFTQINITDDYVFTSPIAYLDPAFSVGGDNTALCVMERVDDKYYAFVFQDQRPANDPYIMNMVKTVIENFNVHTLYLEDRDNTKGAGGLTREYILLRSNISQYFRIVPVKPKSNKFSRITTLITPFTYKKLYITKYSSSSVFNDIYSYKGDNKTHDDALDAISAAYLMLSLGYRERSVHFGNQRFL
MGSDKIHHHHHHMNMFLGEGWQVKPAGGATGEAYIAEQGEQRLFLKRNSSPFLAVLSAEGIVPKLLWTKRLENGDVITAQRWVYGRELKAFEMKEPNVAHLLAKIHHSVELLDMFKRMGNDMLTPQRIIDDLKASMKRHECDDLLFQKGLKFLQTQQEAVNQEQYVVCHCDINHNNWMMSDAGELYLIDWDGATVADPALDLGLLLYSYVPRHEWKTWLANYGLEMSDHLLLRMHWYVVSQTISVMLSNMDRGKHAEAETWQDFLKTLLDDSF
MGSDKIHHHHHHMNNNIPLRALQIFEACARLESCSLAANELCITQSAVSQQIKQLEDYFLEKLFYRQGGKINLTEAGIELRERLAPVFYDLNSVCSSLVQNMAGEVRVHSYTSLAARWLVPKMEQLRQMYPELNINVGMFQNDIEMSDMIADIFIVTRECQDGYTIIPLVTEKLVAFCSPDYLAQSQGISLATLDQHCLLYSKHKDYGVDWDTWFRNNDIAISPNQKKIFFNHNMLAVQAAIYGQGIVLGLEQTLKVELDSGNLVKLDLPTCLSGLTYYIAYKTSKKRDARIMRIVDWIIDNYPGDHPGDRTLAR
MGSDKIHHHHHHMNNTTENGQYFVAAFEPGAEHPALPTWASCNDNGAELALSAPSTVSKKPLTDVPGAFQLLNVLSADECQRLISVSETMGFLPDAAVSLPRNVRHNDSLTWVVDNTTERLIWDRIAGVMTDDLGIFEGKAALGLNNRFRFYRYNEGDYFKPHSDGSWPGSQVIDGELVRDAFGDRYSQLTFLILLTEDFEGGATRFLVNADKPNLPAKHGDNMRQVDVRTPAGSVLCFPHGMHPLHCIHSSEPIFSGVKYIIRTDVLFEL
MGSDKIHHHHHHMNQKNILTWGDVAYASRIATGGSKQEWEALELIWQAWEIIIYTGLATYSNKRELLLVVIRFFAIVSFYLEFFNDYYWEYYINNYSREWLKGIHIIPDYNEYIIDCVNGLCCPILPKSEPNNLLLYFVENALQQVMQVPMDSLNSDSMIFKSVWEISHQQFQLDGDIYELQRREAELISESIFLDKIINLAEIHENYNQNNEFIRDEAAIIEIFFDEDNTDLEWMKCTNHIDFQKSQEVIDATNKFIAFFSCYQIKPNFSLKHCSEIIGFNETDLKRWIRTINRKKQIILSGSPGTGKTFIAKHLAEHLIGGSDGFSELLQFHPTYSYEDFIQGIRPQSQDGQLTYPLVPGRFLKFCKEAEYHQGTCVLIIDEINRANLAQVFGELMYLLEYRNREIPLAGGNTFRIPENVRIIGTMNTADRSIANIDHALRRRFAFIELRPNYDVLRRYHQKRGFAVEGLINILQQLNQAIADKNYEIGISFFLTDNLREDMDDIWPMEIEPYLEEYFFNQLAKVDEFRWDKIKDKLWI
MGSDKIHHHHHHMNRFIIADASKCIGCRTCEVACVVSHQEHQDCASLTPHTFQPRIHVIKGVNVSTATACRQCEDAPCANVCPNGAISRDKGFVHVMQERCIGCKTCVVACPYGAMEVVVRPVIRHSGAGLNVVAEKAEANKCDLCFHRESGPACMEVCPTHALVCVDRNKLEQMNIEKRRRTALAW
MGSDKIHHHHHHMNSGDIPATATFVNGTVNEKAATPRIPHQRPEGCPVSITRDSRAVALLWSFMNNDSSSRIAARLREWIATAAPGARLPSTRSLVAGYQASPVTVQKALQSLTAQGLIESRPGVGTFVRAVRTARPSDYGWQTAALRSPLAPLPSASTTMRDVANNAIAFHSGYPDRELLPERLVRAALTRAARGDAALSRPPAAGLPELQSWFARELGASTPAGTTPPNPSDVVVLPGSQSGLSSIFSALAGRGQPLLMESPTYWGAILAAAQAGVRVVPVPSGPDGPDPAELARAFDETGARLFYAQPNYANPTGAQWAPGRGEEVLEVVRGKGAFLVEDDWAHDFGITTSPVPVASRDDSGHVVYLRSLTKSVSPAIRIAAVIARGPARERILADRAAESMYVSGLLQAAALDVVTQPGWQTHLRSLRHQLQARRDLLVTSIREHAPQAHIEQVPKGGLNLWARLPDATDLDRLTRDCESRGVIIAAGREWFPAEPAGAFIRLNYSGSNPGAFPEGARIIGESIERNSS
MGSDKIHHHHHHMNTAAIYRQYQTYVRSDKSGWALDGCSDSALIAQAKQPGLHLKMCINRFDSGITLSRMRGGGTGAFPTEIHNFSHNCALFVMVSGQNRLQMGGREYRPSAGEIWLVRGELADVSETLLPDSGGMCALHLDFSLEKLRRWHDEGLLDERLFSPQTIGRFALQRLAQNAGTLTAAACPLLQRPFESDGFGLLADEADALELSARLLRFTFRRHDNGYRRRRIDEAADILNSEFARPLTIAEIARRVGLNECYLKRYFKAQTGETVAGRLRRLRLEHALALIESGSTIQAAMHFCGYRHAGRFNEAFRRHYGFLPSDVKKC
MGSDKIHHHHHHMNTLEKRQHEILTNPLHFCKKSGDFAKHSMSIKLSKNELFDVDFVTGIYFVEKGIVMKGTQIDDYIGYDQLLKPGDVCNFSSFMSSDLKRNIGAQLLSPSSSVITAVDRDFFIFMVEKHVSVEEFMLYQAKKEIMILQRRCLLNTLKVKDRVKHLIAAIGYEYGISNGDNIQIPQELSTTFLSKFMGITREYLSLTLSELKKEDYLLNTKIPVVINVEKLFNEIPYESLIL
MGSDKIHHHHHHMNVAILGNQARAMVNFWSVFIARLQADGHTVVCIIPPGDAEGDAALTSMGVRVRHYPLDRKGLNPVRDVATFAALYRIFRQERPDRLFCFTIKPVIYGATAAALARVPGRVAMITGLGYMFEADTPVKRLLNRVAVLMYRAALACVHTVFFQNEEDRAVFTAKGIVPAGTEVAMSRGTGVALDHFAPAETVTAPVTFLLVGRLIEAKGLYEYAEAARMLKARHPEARFRVLGPPEQGLGSVPMETINQWHREGVIEYMGQTRDVRPFLREASVVVLPSWREGTPCSVMEGMSMARAAIVTDAPGCREVVEDGVNGFMVPLRSPEALAAAMERFIEDPSLVQRMGRAGRDLAEREFDAEKVAAHIMRVMRLDAAPRAGGNPQ
MGSDKIHHHHHHMNVVVCIKQVPDTTNVRIDRKTNNLVREGVPSIINPDDERALELASQLKEKFGATVYVITMGPPQAKEALKDAIAFGLDEAVHLSDRTFAGADTLATTYTLYWGIKKIEERIGKIDLILTGKQAVDGDTGQVGPGLATRFGYALGAYVVRIEEIDPEKKEMVIVRRLDQGFEKIRLKLPAVLTITDELNKPRYADLPNLIRAIRYEPIVWTHKDLGLDPKKCGFFGSPTRVVSTNIPPARKGGDIISKNEDPEVAAEKLIEALKKFEAVRLVEALKPVLEGEKDE
MGSDKIHHHHHHMNYDDPKKKVGRNIKRLRLKAGIKSQAALAELCGWKSQSRVGNYEAGTRAVSAIDAETLAKVLNVTPAEILYGENNKDDDFVSMPSAQYSSGPYEEEDPFQLFKPKQELQNAEWHAGFELWDGDTPLRDDEVALPFYREVELAAGSGSTFVQENGGCKLRFAKSTLKKSRVEPSNAACVTVSGNSMLPVLRHGTTVGVDTSKKSIIDGEMYAIDHDGMLRVKMLYRTPGGGIRIKSYNNDEFPDEFIPPEKASDIKIIGWVFWWSVLNVWNN
MGSDKIHHHHHHMPAIIKQFFFKSHEMTLSDPRFLSLNQWLNAYFSDEVTPVLISGDASFRRYFRITTPDATFIAADSPPQLVPIAPFIALSNAYAAVGLTVPKVIHADAAQGFMLMSDLGDTQLLSVLNVQNVADYYRQALDLLPQVASVVASQHLDSGLVQPLPLYDEAFVRRELHIFTEWLLGTHLNLSLDESEQQMLSHSFDLLVDYALSQPSVGMHRDFHSRNLMLQAGELCVIDFQDAVVGPVTYDAVSLLRDCYIRWPQPLVADLMQYHYQQALALGFIPALTTLEQYQTWFDLMGLQRHIKAVGIFARLNYRDSKPAYMADIPLTLTYIVDIAMQYPELVPFAHWLTRRVLPAFTASQSLSEVKQ
MGSDKIHHHHHHMPAKIIDKIIEEIDKLPSPNVVVQRIIAVCSKPDASSTEVANTLMMDASLSARVLKLANSAYYGVPRKITTLSEAVMILGFKTVRNLALSVFTYDMVFKNSSSGIDREKLWEHFIASAIASETVAETMGYPLKEEIFIAGLLHDLGKVVYDLLFSDILETEAKIAQKTKKNLIDIEEELGIPPHSEVGAKLLRKWNFPDLLVLSAEFHHNVEGNPNELFVNQVSMVHIGDVIANLMMKGASLSWGDPKLSPFALNVLKVKPKTFLRILDKSKEKYNKAQEFLQID
MGSDKIHHHHHHMPANPLPDDDLADSDTDDTGSGEHGEGGEKVRSGIQSIEVGFRLLEVLTSEPRAMMLRDLAQRAGMSPAKAHRYLVSFSRLGVVSQDPVSGRYELGGFALQMGLARLARVDGVKLARIALTELRDRVDQTVGIAVWGNQGPTIVHWMESSHPAKASLKLGDVMPLLGSATGLLFAAYLPRSKTAAMLERELADTRRSPHHGGPRTLEEVDAVLADVRAHQAARVEGMLLPTIHAFCMPVFDAVGELALAIVALGQEGTFDIAWGGEMDTALRACAQKLSYELGYSPDARDA
MGSDKIHHHHHHMPDNPTIATLPDSQGHNHRADVQLNQLQCDSTKPNDIRPNAIMPSAIEPNAIKHESVVAEQKQKVIFIGLPRTGTTSVSVALLEQGLKVAHMAFTKAAFMQADAISDAPCFSDFKQLDKLFPDAKFVYIERELDSWVPSMQMLLSRMLPHLDAKSGRFHPIMKRSFRHSFGVGVVENPQDEQHLIDCYQRHKTEVVNYFAGRHDLLCIDVSQQGALGQLLAFMGLAATENQQNFPKLNVGRNVASWDEYKHPNKISANASGPDKRKFFDYKI
